Consider two molecules from paper PMC11957415, “Size-exclusion chromatography–small-angle neutron scattering system optimized for an instrument with medium neutron flux” (Journal of Applied Crystallography, 2025).

The target in assay [1] is T1, hydrogenated KaiC, phosphorylation mimic S431D (Synechococcus elongatus PCC 7942, UniProt Q79PF4 1-519, S431D).
T1 construct: Clock protein KaiC from Synechococcus elongatus PCC 7942, phosphorylation site S431 substituted with aspartate; KaiB and KaiC were mixed at a molar ratio of 12:6, and M from I(0) of hC alone is 334 ± 11 kDa; The buffer contained 3 mM ATP and 5 mM MgCl2; also called hC; h-KaiC; source: expressed and purified as previously described
T1 sequence (looked up): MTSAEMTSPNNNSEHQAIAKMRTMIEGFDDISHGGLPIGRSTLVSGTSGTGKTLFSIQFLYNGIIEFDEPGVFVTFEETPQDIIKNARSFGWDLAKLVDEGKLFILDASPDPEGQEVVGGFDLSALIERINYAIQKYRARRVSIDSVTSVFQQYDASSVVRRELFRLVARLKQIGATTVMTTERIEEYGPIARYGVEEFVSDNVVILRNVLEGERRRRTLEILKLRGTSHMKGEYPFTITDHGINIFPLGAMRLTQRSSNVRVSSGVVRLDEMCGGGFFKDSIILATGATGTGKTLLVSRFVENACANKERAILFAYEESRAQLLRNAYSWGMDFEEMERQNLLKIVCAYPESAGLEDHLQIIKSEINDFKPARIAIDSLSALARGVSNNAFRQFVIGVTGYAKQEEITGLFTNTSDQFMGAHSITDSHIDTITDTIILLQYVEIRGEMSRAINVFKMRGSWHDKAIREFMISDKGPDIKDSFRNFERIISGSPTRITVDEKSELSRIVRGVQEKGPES
Nature of the assay: SEC; KaiB and KaiC mixed at a molar ratio of 12:6 and incubated at 303 K for 48 h; Superdex 200 Increase 10/300 GL, 0.5 mL/min; 98% D2O buffer with 50 mM sodium phosphate pH 7.8, 150 mM NaCl, 5 mM MgCl2, 0.5 mM EDTA, 1 mM DTT, 3 mM ATP, 50 mM glutamic acid, 50 mM arginine. To be noted: both partners purified. A general note: In gel filtration, larger molecules generally elute earlier.

Assay [2] has as its target T1, hydrogenated KaiC, phosphorylation …. Put plainly: SEC-SANS; BC complex fraction from SEC stored in the SANS cell (stopping mode), 298 K, 98% D2O clock protein buffer; compared with hC alone. Conditions: both partners purified.

B1: 71% deuterated KaiB (natural protein, Synechococcus elongatus PCC 7942, UniProt Q79PF5 1-102, looked up)
chain: MSPRKTYILKLYVAGNTPNSVRALKTLKNILEVEFQGVYALKVIDVLKNPQLAEEDKILATPTLAKVLPLPVRRIIGDLSDREKVLIGLDLLYGELQDSDDF
modifications: partially deuterated; degree of deuteration 71% (MALDI-TOF mass spectrometry)
notes: Clock protein KaiB from Synechococcus elongatus PCC 7942; also called 71dB; 71d-KaiB; source: bacterial cells grown in M9 minimal H2O/D2O mixture media with hydrogenated and deuterated glucose, purified
In the case of B1, in assay [1], the binding result is reported as “binds”.

B2: hydrogenated KaiB (natural protein, Synechococcus elongatus PCC 7942, UniProt Q79PF5 1-102, looked up)
chain: B1 chain
notes: Clock protein KaiB from Synechococcus elongatus PCC 7942; also called hB; h-KaiB; source: expressed and purified as previously described
As for B2, the binding result in assay [2] is reported as “binds”.
